Results: the supplement of paper PMC11316812
± gives the standard deviation of the averaged measurements.

Assays:
[1] = tested on: MCF7; assay: percentage of EdU-negative (G0-arrested) nuclei per well, 72 h; higher = more G0 arrest; conditions: reference: sequence is the full UniProt precursor, the tested protein was the secreted form or ectodomain
[2] = tested on: hTERT-HMEC; assay: as above; conditions: reference: sequence is the full UniProt precursor, the tested protein was the secreted form or ectodomain
[3] = protein concentration 0.0102857 µM
[4] = protein concentration 0.102857 µM
[5] = protein concentration 0.0225 µM
[6] = protein concentration 0.0307925 µM
[7] = protein concentration 0.307925 µM
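Further: secreted proteins added to cultured cells, EdU pulse at the end, nuclei found by Hoechst imaging, EdU status from nuclear versus surrounding ring intensity ratio, PBS as neutral control.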

Sequence: MADKVRRQRPRRRVCWALVAVLLADLLALSDTLAVMSVDLGSESMKVAIVKPGVPMEIVLNKESRRKTPVIVTLKENERFFGDSAASMAIKNPKATLRYFQHLLGKQADNPHVALYQARFPEHELTFDPQRQTVHFQISSQLQFSPEEVLGMVLNYSRSLAEDFAEQPIKDAVITVPVFFNQAERRAVLQAARMAGLKVLQLINDNTATALSYGVFRRKDINTTAQNIMFYDMGSGSTVCTIVTYQMVKTKEAGMQPQLQIRGVGFDRTLGGLEMELRLRERLAGLFNEQRKGQRAKDVRENPRAMAKLLREANRLKTVLSANADHMAQIEGLMDDVDFKAKVTRVEFEELCADLFERVPGPVQQALQSAEMSLDEIEQVILVGGATRVPRVQEVLLKAVGKEELGKNINADEAAAMGAVYQAAALSKAFKVKPFVVRDAVVYPILVEFTREVEEEPGIHSLKHNKRVLFSRMGPYPQRKVITFNRYSHDFNFHINYGDLGFLGPEDLRVFGSQNLTTVKLKGVGDSFKKYPDYESKGIKAHFNLDESGVLSLDRVESVFETLVEDSAEEESTLTKLGNTISSLFGGGTTPDAKENGTDTVQEEEESPAEGSKDEPGEQVELKEEAEAPVEDGSQPPPPEPKGDATPEGEKATEKENGDKSEAQKPSEKAEAGPEGVAPAPEGEKKQKPARKRRMVEEIGVELVVLDLPDLPEDKLAQSVQKLQDLTLRDLEKQEREKAANSLEAFIFETQDKLYQPEYQEVSTEEQREEISGKLSAASTWLEDEGVGATTVMLKEKLAELRKLCQGLFFRVEERKKWPERLSALDNLLNHSSMFLKGARLIPEMDQIFTEVEMTTLEKVINETWAWKNATLAEQAKLPATEKPVLLSKDIEAKMMALDREVQYLLNKAKFTKPRPRPKDKNGTRAEPPLNASASDQGEKVIPPAGQTEDAEPISEPEKVETGSEPGDTEPLELGGPGAEPEQKEQSTGQKRPLKNDEL [Q9Y4L1]
- percentage of EdU-negative [1, 3]: 23.6 ± 1.2%
- percentage of EdU-negative [1, 4]: 30.4 ± 1.7%
- percentage of EdU-negative [2, 3]: 6.45 ± 1.3%
- percentage of EdU-negative [2, 4]: 35.3 ± 5.6%

Sequence: MAEAKTHWLGAALSLIPLIFLISGAEAASFQRNQLLQKEPDLRLENVQKFPSPEMIRALEYIENLRQQAHKEESSPDYNPYQGVSVPLQQKENGDESHLPERDSLSEEDWMRIILEALRQAENEPQSAPKENKPYALNSEKNFPMDMSDDYETQQWPERKLKHMQFPPMYEENSRDNPFKRTNEIVEEQYTPQSLATLESVFQELGKLTGPNNQKRERMDEEQKLYTDDEDDIYKANNIAYEDVVGGEDWNPVEEKIESQTQEEVRDSKENIEKNEQINDEMKRSGQLGIQEEDLRKESKDQLSDDVSKVIAYLKRLVNAAGSGRLQNGQNGERATRLFEKPLDSQSIYQLIEISRNLQIPPEDLIEMLKTGEKPNGSVEPERELDLPVDLDDISEADLDHPDLFQNRMLSKSGYPKTPGRAGTEALPDGLSVEDILNLLGMESAANQKTSYFPNPYNQEKVLPRLPYGAGRSRSNQLPKAAWIPHVENRQMAYENLNDKDQELGEYLARMLVKYPEIINSNQVKRVPGQGSSEDDLQEEEQIEQAIKEHLNQGSSQETDKLAPVSKRFPVGPPKNDDTPNRQYWDEDLLMKVLEYLNQEKAEKGREHIAKRAMENM
- percentage of EdU-negative ([1]; protein concentration 0.006 µM): 26.9 ± 0.33%
- percentage of EdU-negative ([1]; protein concentration 0.06 µM): 27.1 ± 1.7%
- percentage of EdU-negative ([2]; protein concentration 0.006 µM): 5.24 ± 0.54%
- percentage of EdU-negative ([2]; protein concentration 0.06 µM): 5.44 ± 0.097%

Sequence: MAEGNTLISVDYEIFGKVQGVFFRKHTQAEGKKLGLVGWVQNTDRGTVQGQLQGPISKVRHMQEWLETRGSPKSHIDKANFNNEKVILKLDYSDFQIVK [G3V2U7]
- percentage of EdU-negative [1, 5]: 24.4 ± 1.6%
- percentage of EdU-negative ([1]; protein concentration 0.225 µM): 25.9 ± 3.2%
- percentage of EdU-negative [2, 5]: 4.35 ± 0.4%
- percentage of EdU-negative ([2]; protein concentration 0.225 µM): 5.31 ± 0.75%

Sequence: MAESAGASSFFPLVVLLLAGSGGSGPRGVQALLCACTSCLQANYTCETDGACMVSIFNLDGMEHHVRTCIPKVELVPAGKPFYCLSSEDLRNTHCCYTDYCNRIDLRVPSGHLKEPEHPSMWGPVELVGIIAGPVFLLFLIIIIVFLVINYHQRVYHNRQRLDMEDPSCEMCLSKDKTLQDLVYDLSTSGSGSGLPLFVQRTVARTIVLQEIIGKGRFGEVWRGRWRGGDVAVKIFSSREERSWFREAEIYQTVMLRHENILGFIAADNKDNGTWTQLWLVSDYHEHGSLFDYLNRYTVTIEGMIKLALSAASGLAHLHMEIVGTQGKPGIAHRDLKSKNILVKKNGMCAIADLGLAVRHDAVTDTIDIAPNQRVGTKRYMAPEVLDETINMKHFDSFKCADIYALGLVYWEIARRCNSGGVHEEYQLPYYDLVPSDPSIEEMRKVVCDQKLRPNIPNWWQSYEALRVMGKMMRECWYANGAARLTALRIKKTLSQLSVQEDVKI
- percentage of EdU-negative [1, 5]: 25.1 ± 0.54%
- percentage of EdU-negative ([1]; protein concentration 0.225 µM): 25.3 ± 3.2%
- percentage of EdU-negative [2, 5]: 5.48 ± 0.32%
- percentage of EdU-negative ([2]; protein concentration 0.225 µM): 6.41 ± 1.6%

Sequence: MAFAWWPCLILALLSSLAASGFPRSPFRLLGKRSLPEGVANGIEVYSTKINSKVTSRFAHNVVTMRAVNRADTAKEVSFDVELPKTAFITNFTLTIDGVTYPGNVKEKEVAKKQYEKAVSQGKTAGLVKASGRKLEKFTVSVNVAAGSKVTFELTYEELLKRHKGKYEMYLKVQPKQLVKHFEIEVDIFEPQGISMLDAEASFITNDLLGSALTKSFSGKKGHVSFKPSLDQQRSCPTCTDSLLNGDFTITYDVNRESPGNVQIVNGYFVHFFAPQGLPVVPKNVAFVIDISGSMAGRKLEQTKEALLRILEDMQEEDYLNFILFSGDVSTWKEHLVQATPENLQEARTFVKSMEDKGMTNINDGLLRGISMLNKAREEHRIPERSTSIVIMLTDGDANVGESRPEKIQENVRNAIGGKFPLYNLGFGNNLNYNFLENMALENHGFARRIYEDSDADLQLQGFYEEVANPLLTGVEMEYPENAILDLTQNTYQHFYDGSEIVVAGRLVDEDMNSFKADVKGHGATNDLTFTEEVDMKEMEKALQERDYIFGNYIERLWAYLTIEQLLEKRKNAHGEEKENLTARALDLSLKYHFVTPLTSMVVTKPEDNEDERAIADKPGEDAEATPVSPAMSYLTSYQPPQNPYYYVDGDPHFIIQIPEKDDALCFNIDEAPGTVLRLIQDAVTGLTVNGQITGDKRGSPDSKTRKTYFGKLGIANAQMDFQVEVTTEKITLWNRAVPSTFSWLDTVTVTQDGLSMMINRKNMVVSFGDGVTFVVVLHQVWKKHPVHRDFLGFYVVDSHRMSAQTHGLLGQFFQPFDFKVSDIRPGSDPTKPDATLVVKNHQLIVTRGSQKDYRKDASIGTKVVCWFVHNNGEGLIDGVHTDYIVPNLF
- percentage of EdU-negative [1, 5]: 26.1 ± 2.2%
- percentage of EdU-negative ([1]; protein concentration 0.225 µM): 27.2 ± 3.3%
- percentage of EdU-negative [2, 5]: 4.75 ± 1%
- percentage of EdU-negative ([2]; protein concentration 0.225 µM): 6.22 ± 0.29%

Sequence: MAFDVSCFFWVVLFSAGCKVITSWDQMCIEKEANKTYNCENLGLSEIPDTLPNTTEFLEFSFNFLPTIHNRTFSRLMNLTFLDLTRCQINWIHEDTFQSHHQLSTLVLTGNPLIFMAETSLNGPKSLKHLFLIQTGISNLEFIPVHNLENLESLYLGSNHISSIKFPKDFPARNLKVLDFQNNAIHYISREDMRSLEQAINLSLNFNGNNVKGIELGAFDSTIFQSLNFGGTPNLSVIFNGLQNSTTQSLWLGTFEDIDDEDISSAMLKGLCEMSVESLNLQEHRFSDISSTTFQCFTQLQELDLTATHLKGLPSGMKGLNLLKKLVLSVNHFDQLCQISAANFPSLTHLYIRGNVKKLHLGVGCLEKLGNLQTLDLSHNDIEASDCCSLQLKNLSHLQTLNLSHNEPLGLQSQAFKECPQLELLDLAFTRLHINAPQSPFQNLHFLQVLNLTYCFLDTSNQHLLAGLPVLRHLNLKGNHFQDGTITKTNLLQTVGSLEVLILSSCGLLSIDQQAFHSLGKMSHVDLSHNSLTCDSIDSLSHLKGIYLNLAANSINIISPRLLPILSQQSTINLSHNPLDCTCSNIHFLTWYKENLHKLEGSEETTCANPPSLRGVKLSDVKLSCGITAIGIFFLIVFLLLLAILLFFAVKYLLRWKYQHI
- percentage of EdU-negative [1, 5]: 27.1 ± 4.8%
- percentage of EdU-negative ([1]; protein concentration 0.225 µM): 29.8 ± 3.2%
- percentage of EdU-negative [2, 5]: 5.21 ± 0.11%
- percentage of EdU-negative ([2]; protein concentration 0.225 µM): 7.06 ± 0.86%

Sequence: MAFLGLFSLLVLQSMATGATFPEEAIADLSVNMYNRLRATGEDENILFSPLSIALAMGMMELGAQGSTQKEIRHSMGYDSLKNGEEFSFLKEFSNMVTAKESQYVMKIANSLFVQNGFHVNEEFLQMMKKYFNAAVNHVDFSQNVAVANYINKWVENNTNNLVKDLVSPRDFDAATYLALINAVYFKGNWKSQFRPENTRTFSFTKDDESEVQIPMMYQQGEFYYGEFSDGSNEAGGIYQVLEIPYEGDEISMMLVLSRQEVPLATLEPLVKAQLVEEWANSVKKQKVEVYLPRFTVEQEIDLKDVLKALGITEIFIKDANLTGLSDNKEIFLSKAIHKSFLEVNEEGSEAAAVSGMIAISRMAVLYPQVIVDHPFFFLIRNRRTGTILFMGRVMHPETMNTSGHDFEEL
- percentage of EdU-negative [1, 6]: 22.8 ± 1.4%
- percentage of EdU-negative [1, 7]: 27.7 ± 2.1%
- percentage of EdU-negative [2, 6]: 4.97 ± 0.78%
- percentage of EdU-negative [2, 7]: 49.1 ± 2.1%

Sequence: MAFLPSWVCVLVGSFSASLAGTSNLSETEPPLWKESPGQLSDYRVENSMYIINPWVYLERMGMYKIILNQTARYFAKFAPDNEQNILWGLPLQYGWQYRTGRLADPTRRTNCGYESGDHMCISVDSWWADLNYFLSSLPFLAAVDSGVMGISSDQVRLLPPPKNERKFCYDVSSCRSSFPETMNKWNTFYQYLQSPFSKFDDLLKYLWAAHTSTLADNIKSFEDRYDYYSKAEAHFERSWVLAVDHLAAVLFPTTLIRSYKFQKGMPPRILLNTDVAPFISDFTAFQNVVLVLLNMLDNVDKSIGYLCTEKSNVYRDHSESSSRSYGNNS [Q6P5S2]
- percentage of EdU-negative [1, 5]: 25.7 ± 0.86%
- percentage of EdU-negative ([1]; protein concentration 0.225 µM): 26.6 ± 0.54%
- percentage of EdU-negative [2, 5]: 4.92 ± 0.16%
- percentage of EdU-negative ([2]; protein concentration 0.225 µM): 5.82 ± 0.65%
